This data set concerns the molecule itself. As to the kind of experiment: SEC. On the technique in general: In gel filtration, larger molecules generally elute earlier.

B1: GYINVG-ZYG11B485-728 fusion protein (other)
chain: GYINVGAQLGTELFIVRQLLQIVKQKTNQNSVDTTLKFTLSALWNLTDESPTTCRHFIENQGLELFMRVLESFPTESSIQQKVLGLLNNIAEVQELHSELMWKDFIDHISSLLHSVEVEVSYFAAGIIAHLISRGEQAWTLSRSQRNSLLDDLHSAILKWPTPECEMVAYRSFNPFFPLLGCFTTPGVQLWAVWAMQHVCSKNPSRYCSMLIEEGGLQHLYNIKDHEHTDPHVQQIAVAILDSLEKHIVR
What is called stoichiometry N is a count of units in the complex or per binding partner. On to B1, for which the “stoichiometry N” value was 2.

The values above are taken from publication PMC9121654 (Biochemical and Biophysical Research Communications, 2022).
